The test addresses Δ41-52 hPRL (human prolactin with residues 41-52 removed) (human) (UniProt P01236). Put plainly: mass spectrometry.

One may read the stoichiometry N as a count of units in the complex or per binding partner. In turn, “Δ41-52 hPRL (human prolactin with residues 41-52 removed) (from UniProt P01236 29-227) (ligand)” showed a stoichiometry N of 2.

These data come from paper PMC2696313.
